± gives the standard deviation of the averaged measurements.
B1: library; a variant is named by its letters at N, in order (parent)
chain: GCUGUCACCGAGAAACUGUGAAGUAUAUCUUAAACCUGGGCACUUAAAAGAUAUAUGGAGUUAGUAGUGCAACCUGCUCGGUCUGAUGAGUCCNNNNNNGGACGAAACAGC

Columns and labels:
cyclic di-GMP [1] = variants of: B1; assay: normalized RNA/DNA level without ligand (relative to sTRSVctl = 100) (log10 (% of sTRSVctl)); HEK293T; ligand: cyclic di-GMP (c-di-GMP-II aptamer); higher = less ribozyme self-cleavage, higher mRNA level; conditions: reporter: mCherry (pCS4076), ligand present: no
Method in brief: (§1)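 Ribozyme switch library plasmids with mCherry reporters (eGFP in certain ligand experiments) went into HEK293T cells at 4 µg per 6-well well. Where ligand was used, it was applied 1 h before transfection, and total RNA was extracted with EDTA 72 h later for reverse transcription, amplification, barcoding and sequencing. RNA level is the RNA-to-DNA read ratio normalized to a spiked-in non-cleaving sequence or to the leading sequences, then scaled and log-transformed. Scaling was ×100 with log10, the leading set comprised 25 sequences, and the cutoff was ≥100 DNA reads.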

cyclic di-GMP [2] = variants of: B1; assay: normalized RNA/DNA level with ligand (relative to sTRSVctl = 100) (log10 (% of sTRSVctl)); HEK293T; ligand: cyclic di-GMP (c-di-GMP-II aptamer); ligand concentration (+) RNA-Seq: 1 mM; higher = less ribozyme self-cleavage, higher mRNA level; conditions: reporter: mCherry (pCS4076), ligand present: yes
Method in brief: as §1

GCUGUCACCGAGAAACUGUGAAGUAUAUCUUAAACCUGGGCACUUAAAAGAUAUAUGGAGUUAGUAGUGCAACCUGCUCGGUCUGAUGAGUCCGGGCGCGGACGAAACAGC [GGGCGC]
normalized RNA/DNA level without ligand (log10) (cyclic di-GMP [1]): 1.84 ± 0.027
normalized RNA/DNA level with ligand (log10) (cyclic di-GMP [2]): 1.92 ± 0.091

GCUGUCACCGAGAAACUGUGAAGUAUAUCUUAAACCUGGGCACUUAAAAGAUAUAUGGAGUUAGUAGUGCAACCUGCUCGGUCUGAUGAGUCCCGGCUCGGACGAAACAGC [CGGCUC]
normalized RNA/DNA level without ligand (log10) (cyclic di-GMP [1]): 1.782 ± 0.0084
normalized RNA/DNA level with ligand (log10) (cyclic di-GMP [2]): 1.85 ± 0.085

GCUGUCACCGAGAAACUGUGAAGUAUAUCUUAAACCUGGGCACUUAAAAGAUAUAUGGAGUUAGUAGUGCAACCUGCUCGGUCUGAUGAGUCCCGGCUGGGACGAAACAGC [CGGCUG]
normalized RNA/DNA level without ligand (log10) (cyclic di-GMP [1]): 1.74 ± 0.087
normalized RNA/DNA level with ligand (log10) (cyclic di-GMP [2]): 1.87 ± 0.12

GCUGUCACCGAGAAACUGUGAAGUAUAUCUUAAACCUGGGCACUUAAAAGAUAUAUGGAGUUAGUAGUGCAACCUGCUCGGUCUGAUGAGUCCUGGCGUGGACGAAACAGC [UGGCGU]
normalized RNA/DNA level without ligand (log10) (cyclic di-GMP [1]): 1.6 ± 0.03
normalized RNA/DNA level with ligand (log10) (cyclic di-GMP [2]): 1.81 ± 0.16

GCUGUCACCGAGAAACUGUGAAGUAUAUCUUAAACCUGGGCACUUAAAAGAUAUAUGGAGUUAGUAGUGCAACCUGCUCGGUCUGAUGAGUCCUGGCGGGGACGAAACAGC [UGGCGG]
normalized RNA/DNA level without ligand (log10) (cyclic di-GMP [1]): 1.854 ± 0.013
normalized RNA/DNA level with ligand (log10) (cyclic di-GMP [2]): 1.93 ± 0.13

GCUGUCACCGAGAAACUGUGAAGUAUAUCUUAAACCUGGGCACUUAAAAGAUAUAUGGAGUUAGUAGUGCAACCUGCUCGGUCUGAUGAGUCCUGGCGCGGACGAAACAGC [UGGCGC]
normalized RNA/DNA level without ligand (log10) (cyclic di-GMP [1]): 1.818 ± 0.018
normalized RNA/DNA level with ligand (log10) (cyclic di-GMP [2]): 1.9 ± 0.14

GCUGUCACCGAGAAACUGUGAAGUAUAUCUUAAACCUGGGCACUUAAAAGAUAUAUGGAGUUAGUAGUGCAACCUGCUCGGUCUGAUGAGUCCUGGCGAGGACGAAACAGC [UGGCGA]
normalized RNA/DNA level without ligand (log10) (cyclic di-GMP [1]): 1.597 ± 0.0046
normalized RNA/DNA level with ligand (log10) (cyclic di-GMP [2]): 1.74 ± 0.11

GCUGUCACCGAGAAACUGUGAAGUAUAUCUUAAACCUGGGCACUUAAAAGAUAUAUGGAGUUAGUAGUGCAACCUGCUCGGUCUGAUGAGUCCAGGGAAGGACGAAACAGC [AGGGAA]
normalized RNA/DNA level without ligand (log10) (cyclic di-GMP [1]): 1.41 ± 0.11
normalized RNA/DNA level with ligand (log10) (cyclic di-GMP [2]): 1.53 ± 0.061

GCUGUCACCGAGAAACUGUGAAGUAUAUCUUAAACCUGGGCACUUAAAAGAUAUAUGGAGUUAGUAGUGCAACCUGCUCGGUCUGAUGAGUCCGGGGAAGGACGAAACAGC [GGGGAA]
normalized RNA/DNA level without ligand (log10) (cyclic di-GMP [1]): 1.48 ± 0.1
normalized RNA/DNA level with ligand (log10) (cyclic di-GMP [2]): 1.54 ± 0.055

GCUGUCACCGAGAAACUGUGAAGUAUAUCUUAAACCUGGGCACUUAAAAGAUAUAUGGAGUUAGUAGUGCAACCUGCUCGGUCUGAUGAGUCCUGGGACGGACGAAACAGC [UGGGAC]
normalized RNA/DNA level without ligand (log10) (cyclic di-GMP [1]): 1.697 ± 0.01
normalized RNA/DNA level with ligand (log10) (cyclic di-GMP [2]): 1.84 ± 0.078

GCUGUCACCGAGAAACUGUGAAGUAUAUCUUAAACCUGGGCACUUAAAAGAUAUAUGGAGUUAGUAGUGCAACCUGCUCGGUCUGAUGAGUCCCGGGACGGACGAAACAGC [CGGGAC]
normalized RNA/DNA level without ligand (log10) (cyclic di-GMP [1]): 1.669 ± 0.012
normalized RNA/DNA level with ligand (log10) (cyclic di-GMP [2]): 1.79 ± 0.085

GCUGUCACCGAGAAACUGUGAAGUAUAUCUUAAACCUGGGCACUUAAAAGAUAUAUGGAGUUAGUAGUGCAACCUGCUCGGUCUGAUGAGUCCGGGCUCGGACGAAACAGC [GGGCUC]
normalized RNA/DNA level without ligand (log10) (cyclic di-GMP [1]): 1.88 ± 0.051
normalized RNA/DNA level with ligand (log10) (cyclic di-GMP [2]): 1.98 ± 0.042

GCUGUCACCGAGAAACUGUGAAGUAUAUCUUAAACCUGGGCACUUAAAAGAUAUAUGGAGUUAGUAGUGCAACCUGCUCGGUCUGAUGAGUCCCGGCGAGGACGAAACAGC [CGGCGA]
normalized RNA/DNA level without ligand (log10) (cyclic di-GMP [1]): 1.49 ± 0.068
normalized RNA/DNA level with ligand (log10) (cyclic di-GMP [2]): 1.67 ± 0.11

GCUGUCACCGAGAAACUGUGAAGUAUAUCUUAAACCUGGGCACUUAAAAGAUAUAUGGAGUUAGUAGUGCAACCUGCUCGGUCUGAUGAGUCCCGGCGUGGACGAAACAGC [CGGCGU]
normalized RNA/DNA level without ligand (log10) (cyclic di-GMP [1]): 1.726 ± 0.013
normalized RNA/DNA level with ligand (log10) (cyclic di-GMP [2]): 1.91 ± 0.16

GCUGUCACCGAGAAACUGUGAAGUAUAUCUUAAACCUGGGCACUUAAAAGAUAUAUGGAGUUAGUAGUGCAACCUGCUCGGUCUGAUGAGUCCCGGCGGGGACGAAACAGC [CGGCGG]
normalized RNA/DNA level without ligand (log10) (cyclic di-GMP [1]): 1.68 ± 0.059
normalized RNA/DNA level with ligand (log10) (cyclic di-GMP [2]): 1.81 ± 0.077

GCUGUCACCGAGAAACUGUGAAGUAUAUCUUAAACCUGGGCACUUAAAAGAUAUAUGGAGUUAGUAGUGCAACCUGCUCGGUCUGAUGAGUCCAGGCGUGGACGAAACAGC [AGGCGU]
normalized RNA/DNA level without ligand (log10) (cyclic di-GMP [1]): 1.609 ± 0.0044
normalized RNA/DNA level with ligand (log10) (cyclic di-GMP [2]): 1.76 ± 0.12

GCUGUCACCGAGAAACUGUGAAGUAUAUCUUAAACCUGGGCACUUAAAAGAUAUAUGGAGUUAGUAGUGCAACCUGCUCGGUCUGAUGAGUCCAGGCGCGGACGAAACAGC [AGGCGC]
normalized RNA/DNA level without ligand (log10) (cyclic di-GMP [1]): 1.74 ± 0.075
normalized RNA/DNA level with ligand (log10) (cyclic di-GMP [2]): 1.86 ± 0.088

GCUGUCACCGAGAAACUGUGAAGUAUAUCUUAAACCUGGGCACUUAAAAGAUAUAUGGAGUUAGUAGUGCAACCUGCUCGGUCUGAUGAGUCCAGGCGGGGACGAAACAGC [AGGCGG]
normalized RNA/DNA level without ligand (log10) (cyclic di-GMP [1]): 1.79 ± 0.026
normalized RNA/DNA level with ligand (log10) (cyclic di-GMP [2]): 1.88 ± 0.063

GCUGUCACCGAGAAACUGUGAAGUAUAUCUUAAACCUGGGCACUUAAAAGAUAUAUGGAGUUAGUAGUGCAACCUGCUCGGUCUGAUGAGUCCAGGCGAGGACGAAACAGC [AGGCGA]
normalized RNA/DNA level without ligand (log10) (cyclic di-GMP [1]): 1.56 ± 0.037
normalized RNA/DNA level with ligand (log10) (cyclic di-GMP [2]): 1.67 ± 0.13

GCUGUCACCGAGAAACUGUGAAGUAUAUCUUAAACCUGGGCACUUAAAAGAUAUAUGGAGUUAGUAGUGCAACCUGCUCGGUCUGAUGAGUCCAGGCUGGGACGAAACAGC [AGGCUG]
normalized RNA/DNA level without ligand (log10) (cyclic di-GMP [1]): 1.774 ± 0.0035
normalized RNA/DNA level with ligand (log10) (cyclic di-GMP [2]): 1.87 ± 0.051

GCUGUCACCGAGAAACUGUGAAGUAUAUCUUAAACCUGGGCACUUAAAAGAUAUAUGGAGUUAGUAGUGCAACCUGCUCGGUCUGAUGAGUCCAGGCUCGGACGAAACAGC [AGGCUC]
normalized RNA/DNA level without ligand (log10) (cyclic di-GMP [1]): 1.78 ± 0.034
normalized RNA/DNA level with ligand (log10) (cyclic di-GMP [2]): 1.87 ± 0.087

GCUGUCACCGAGAAACUGUGAAGUAUAUCUUAAACCUGGGCACUUAAAAGAUAUAUGGAGUUAGUAGUGCAACCUGCUCGGUCUGAUGAGUCCAGGCUAGGACGAAACAGC [AGGCUA]
normalized RNA/DNA level without ligand (log10) (cyclic di-GMP [1]): 1.51 ± 0.084
normalized RNA/DNA level with ligand (log10) (cyclic di-GMP [2]): 1.65 ± 0.095

GCUGUCACCGAGAAACUGUGAAGUAUAUCUUAAACCUGGGCACUUAAAAGAUAUAUGGAGUUAGUAGUGCAACCUGCUCGGUCUGAUGAGUCCUGGCUAGGACGAAACAGC [UGGCUA]
normalized RNA/DNA level without ligand (log10) (cyclic di-GMP [1]): 1.719 ± 0.003
normalized RNA/DNA level with ligand (log10) (cyclic di-GMP [2]): 1.87 ± 0.11

GCUGUCACCGAGAAACUGUGAAGUAUAUCUUAAACCUGGGCACUUAAAAGAUAUAUGGAGUUAGUAGUGCAACCUGCUCGGUCUGAUGAGUCCUGGCUGGGACGAAACAGC [UGGCUG]
normalized RNA/DNA level without ligand (log10) (cyclic di-GMP [1]): 1.836 ± 0.013
normalized RNA/DNA level with ligand (log10) (cyclic di-GMP [2]): 1.9 ± 0.095

GCUGUCACCGAGAAACUGUGAAGUAUAUCUUAAACCUGGGCACUUAAAAGAUAUAUGGAGUUAGUAGUGCAACCUGCUCGGUCUGAUGAGUCCUGGCUCGGACGAAACAGC [UGGCUC]
normalized RNA/DNA level without ligand (log10) (cyclic di-GMP [1]): 1.78 ± 0.047
normalized RNA/DNA level with ligand (log10) (cyclic di-GMP [2]): 1.92 ± 0.077

GCUGUCACCGAGAAACUGUGAAGUAUAUCUUAAACCUGGGCACUUAAAAGAUAUAUGGAGUUAGUAGUGCAACCUGCUCGGUCUGAUGAGUCCUGGCUUGGACGAAACAGC [UGGCUU]
normalized RNA/DNA level without ligand (log10) (cyclic di-GMP [1]): 1.694 ± 0.014
normalized RNA/DNA level with ligand (log10) (cyclic di-GMP [2]): 1.88 ± 0.058

Reference: the supplement of paper PMC6757056
